Measurements from the RNAGym collection of RNA variant scans (doi:10.7554/elife.90254).

B1: LINE1-full (parent)
chain: UACGUAGGUGGUUUUCCCCUGAUAGUGCUAAGGGGGCCUGGAAGUUUGGACUGGGCAGAGCUCAACACAGCGUGGCAAAGUGGCUGUGGCUAGACUGCCUCUCUGGAUUCCUCGUCACUCAGCAGGGCAUCUCUGAGAGAAAUGCC

Variants of: B1
Assay: self-cleavage, relative activity (ratio to wild type); higher = more cleavage; in vitro, sequencing; the parent is a self-cleaving ribozyme

Variant	self-cleavage
A42G A43G	1.17
A43G A94U	0.16
A43G A94C	0.14
A42G A107G	1.7
A43U G60A	0.05
A43U C99U	0.2
A43G G58A	0.05
A43C U119C	1.62
A43G A64C	0.2
G41A U132C	1.25
A42U A50G	0.92
A42G C63U	0.4
A42G A65U	0.32
A43U A69U	0.05
A43G G48A	1.54
A42U C84U	0.09
A43U U115A	1.6
A42G U134C	1.36
A42U U108C	1.33
A43G G60A	0.04
A42U U130C	1.32

Variant	self-cleavage
A42G C101A	0.95
A42C G97C	0.11
G41A A59G	0.07
G44A G89U	0.02
G44A G89C	0.04
A42C G53A	1.22
A42G G83A	0.96
A42G A142G	1.48
A43U G54A	0.56
G41A A94G	0.13
G41U U115A	1.29
A42G A141G	1.38
G44A A50G	0.9
A42G A67U	0.17
G40U A50G	0
A42G U143A	1.85
A42G U143C	1.3
A43U A94G	0.12
G41U A94G	0.05
G41U U45A	1.14
A43G A59G	0.14

Variant	self-cleavage
A42G U102C	1.36
A42U G82A	1.38
G41A A136U	1.53
A43G A50G	1.24
A43G A50C	1.73
A42G U91C	0.68
A43G G114A	1.05
A42U A140G	1.29
A42U A140U	1.05
A43G U62A	0.1
A42G U115C	1.67
A42U A117U	1.28
A42U A117G	1.21
A42G A121G	1.59
A42G A121U	1.4
A43G C146A	1.09
A43U U45G	2.34
A43U U143C	0.51
G40U A140U	1.79
A42G C128U	1.28
G40A U119C	0.84

Variant	self-cleavage
G41U A140G	1.14
A43G U87G	0.16
A43G U87A	0.08
G41A A140G	1.05
A43U A64G	0.42
G40C U45C	0.75
G44A C90G	0.01
A42G G135A	1.69
G41A A121G	1.15
A43G U47A	0.96
A42U U104A	1.15
A42U U85C	0.13
A42G U119C	1.35
A43U U100C	1.75
A43U U100A	0.84
A42G C145G	1.14
A43C G105U	1.53
A43U A59G	0.03
A42C G93A	0.03
A42G A138C	0.41
